Measurements reported in publication PMC10892419, “UHPLC-MS/MS Assay for Quantification of Legubicin, a Novel Doxorubicin-Based Legumain-Activated Prodrug, and Its Application to Pharmacokinetic and Tissue Distribution Studies” (Molecules, 2024).
Residues, ends and D or L forms follow the SMILES beside them. *: point of attachment. Doxorubicin(3'-N) = COc1cccc2c1C(=O)c1c(O)c3c(c(O)c1C2=O)C[C@@](O)(C(=O)CO)C[C@@H]3O[C@H]1C[C@H](N*)[C@H](O)[C@H](C)O1; Hexanoyl(6-maleimido) = O=C1C=CC(=O)N1CCCCCC(=O)*

Tests used:
[1] = Tissue-distribution study after i.v. legubicin or doxorubicin; conditions: HT1080 tumor-bearing mice
Experimental: The mixture was vortexed for 3 min, and then centrifuged at 22,000× g at 4 °C for 10 min. A final analysis was conducted by injecting 5 µL supernatant into a UHPLC-MS/MS system. Mouse plasma samples were treated in the same way as the rat plasma samples, except for protein precipitation, with 200 µL of 5 pmol/mL IS working solution and injection of 2 µL of supernatant for analysis.
Each legubicin administration group corresponded to a sampling time-point (4, 16, 32, 48, 96, 168, and 240 h after administration). […] Blood samples and tumor, heart, and kidney tissues were collected at the sampling time points (4, 16, 32, 48, 96, 168, and 240 h after dosing). In addition, liver, spleen, lung, stomach, small intestine, gonads, brain, skeletal muscle, and skin were also collected at 4, 32, 96, and 240 h post-dose time points in the legubicin administration group. All whole-blood samples were processed according to the same processing steps, described above, for rat whole-blood samples.
The analysis software (Version 1.5.2, AB Sciex, Vaughan, ON, Canada) was applied to data acquisition and quantification. Pharmacokinetic parameters were calculated with WinNonlin Phoenix (v6.4, Pharsight, Mountain View, CA, USA) with the noncompartmental method, and were presented as mean ± SD (%CV). The “Best fit” strategy in the WinNonlin Phoenix was used for the calculation of elimination half-life and the selection of the elimination phase. Graphs were plotted by GraphPad Software (GraphPad Prism 8.0.2; GraphPad Software, Inc., La Jolla, CA, USA).

[2] = acute toxicological assessment in dogs; ref unpublished preclinical studies at the authors' institution; cited from earlier work
[3] = cited from earlier work
[4] = legubicin vs equimolar doxorubicin (9.05 µmol/kg i.v.)

Structure (SMILES)	T/P Ratio of doxorubicin, kidney ([1]; i.v. 9.05 µmol/kg of the labelled drug, n = 6, tissue-to-plasma ratio)	fold decrease in doxorubicin exposure (AUClast) in the heart [1, 4]	fold decrease in doxorubicin exposure (AUClast) in the kidney [1, 4]	fold increase in tumor doxorubicin exposure (AUClast) [1, 4]	MTD relative to doxorubicin [2]	maximum tolerated dose (MTD) [2]	AUC ([3]; doses equivalent to 2.5 mg/kg of doxorubicin)	clearance (CL) ([3]; published value)
COc1cccc2c1C(=O)c1c(O)c3c(c(O)c1C2=O)C[C@@](O)(C(=O)CO)C[C@@H]3O[C@H]1C[C@H](NC(=O)[C@H](CC(C)C)NC(=O)[C@H](CC(N)=O)NC(=O)[C@H](C)NC(=O)[C@H](C)NC(=O)CCCCCN2C(=O)C=CC2=O)[C@H](O)[C@H](C)O1 [Legubicin] ({Hexanoyl(6-maleimido)}-AANL-{Doxorubicin(3'-N)})	28.9	3.3 fold	3.5 fold	1.8 fold	tenfold increase compared to doxorubicin	15 mg/kg		
COc1cccc2c1C(=O)c1c(O)c3c(c(O)c1C2=O)C[C@@](O)(/C(CO)=N/NC(=O)CCCCCN1C(=O)C=CC1=O)C[C@@H]3O[C@H]1C[C@H](N)[C@H](O)[C@H](C)O1 [DOXO-EMCH, doxorubicin (6-maleimidocaproyl) hydrazone]							536 µM·h	approximately 7.9 mL/h/kg
